Data: paper PMC7919490, “Effect of C-terminus Conjugation via Different Conjugation Chemistries on In Vivo Activity of Albumin-Conjugated Recombinant GLP-1” (Pharmaceutics, 2021)
Each block holds one molecule with its values, some of them ahead of it.

Key:
[1] = cited from earlier work
Text: Although GLP-1 exerts significant effects in an individual’s body, its short half-life is a significant drawback. Many studies have been conducted in effort to overcome the hurdles of GLP-1 and to develop it as a medication. Traditional efforts to increase the size of small therapeutic proteins have included polyethylene glycol (PEG) conjugation. […] The in vitro activity of GLP1_8A37C-HSA was greater than that of GLP1_8G37C-HSA, probably due to the alanine to glycine change at position 8 (A8G) affecting the interactions with GLP-1R. […] Despite the low EC50 value of GLP1_ ...

[2] = target: GLP-1 receptor (GLP-1R) (UniProt P43220)
Chain of GLP-1 receptor (GLP-1R) (P43220 24-463): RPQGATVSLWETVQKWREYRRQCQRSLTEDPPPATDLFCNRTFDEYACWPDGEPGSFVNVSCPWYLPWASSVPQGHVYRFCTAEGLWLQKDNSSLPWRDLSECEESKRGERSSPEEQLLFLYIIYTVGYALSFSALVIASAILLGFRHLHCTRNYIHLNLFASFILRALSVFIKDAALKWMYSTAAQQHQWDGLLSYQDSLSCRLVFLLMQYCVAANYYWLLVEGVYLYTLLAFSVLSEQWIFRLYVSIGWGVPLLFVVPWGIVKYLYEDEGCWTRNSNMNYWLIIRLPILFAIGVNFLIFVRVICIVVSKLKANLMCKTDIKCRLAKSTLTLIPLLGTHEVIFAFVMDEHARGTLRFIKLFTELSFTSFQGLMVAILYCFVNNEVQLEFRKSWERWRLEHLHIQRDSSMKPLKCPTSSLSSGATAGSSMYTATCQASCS

[3] = target: T1, GLP-1R (Homo sapiens, UniProt P43220); assay: In vitro activity assay: cAMP production by GLP-1R-overexpressing HEK-293 cells; format: cell-based; conditions: HEK293 cells transfected with pcDNA3.1-GLP-1R_tango; 15 min exposure; cAMP Parameter Assay Kit; normalized to cAMP with 1 μM GLP1_C; dose-response fit in OriginPro; n = 3/group
T1 construct: Tango fusion cassette (named only as '_tango' in the plasmid name); host or cells: HEK293 (ATCC), transiently transfected
T1 sequence (P43220 24-463): as above
Experimental: The plasmid pcDNA3.1-GLP-1R_tango (Addgene, Cambridge, MA, USA) and transfection reagent were then mixed in serum-free medium for 20 min, in accordance with the manufacturer’s recommendation. […] The levels of cAMP in the cell lysate were measured using the cAMP Parameter Assay Kit following the manufacturer’s protocol. […] The half maximal effective concentrations (EC50) of each curve were estimated from a dose–response curve using OriginPro software. Absorbance at 450 nm was monitored using a Varioskan Lux microplate reader (Thermo Fisher Scientific).

- EC50 [3]: 0.185 µM
Molecule: GLP1_8A37C-HSA: GLP1-HSA conjugate with alanine at position 8 and albumin at its C-terminus (HAEGTFTSDVSSYLEGQAAKEFIAWLVRGRC; not fully specified; GLP-1(7-37), Ala8 kept, G37C; Cys37 is joined through TET-PEG4-maleimide / TCO-maleimide (IEDDA) to Cys34 of human serum albumin (carrier, UniProt P02768 25-609, not included))

- EC50 [3]: 1.11 µM
Molecule: GLP1_8G16AzF-HSA: GLP1-HSA conjugate generated by HSA conjugation to position 16 of GLP-1 via SPAAC (HGEGTFTSDFSSYLEGQAAKEFIAWLVRGRG; not fully specified; GLP-1(7-37) A8G; Residue 16 (entry position 10) is p-azido-L-phenylalanine, written as parent Phe, joined by SPAAC through DBCO-PEG4-maleimide to Cys34 of human serum albumin (carrier, UniProt P02768)

- EC50 [3]: 1.34 µM
Molecule: GLP1_8G37C-HSA: GLP1-HSA conjugate, HSA conjugated to GLP1_8G37C via Michael addition and IEDDA (HGEGTFTSDVSSYLEGQAAKEFIAWLVRGRC; not fully specified; GLP-1(7-37) A8G, G37C; Cys37 is joined through TET-PEG4-maleimide / TCO-maleimide (IEDDA) to Cys34 of human serum albumin (carrier, UniProt P02768 25-609, not included); K34R is inferred from the expe)

The next lines start with the molecule.

Molecule: CC[C@H](C)[C@H](NC(=O)[C@H](Cc1ccccc1)NC(=O)[C@H](CCC(=O)O)NC(=O)[C@H](CCCCN)NC(=O)[C@H](C)NC(=O)[C@H](C)NC(=O)[C@H](CCC(N)=O)NC(=O)CNC(=O)[C@H](CCC(=O)O)NC(=O)[C@H](CC(C)C)NC(=O)[C@H](Cc1ccc(O)cc1)NC(=O)[C@H](CO)NC(=O)[C@H](CO)NC(=O)[C@@H](NC(=O)[C@H](CC(=O)O)NC(=O)[C@H](CO)NC(=O)[C@@H](NC(=O)[C@H](Cc1ccccc1)NC(=O)[C@@H](NC(=O)CNC(=O)[C@H](CCC(=O)O)NC(=O)[C@H](C)NC(=O)[C@@H](N)Cc1c[nH]cn1)[C@@H](C)O)[C@@H](C)O)C(C)C)C(=O)N[C@@H](C)C(=O)N[C@@H](Cc1c[nH]c2ccccc12)C(=O)N[C@@H](CC(C)C)C(=O)N[C@H](C(=O)N[C@@H](CCCNC(=N)N)C(=O)NCC(=O)N[C@@H](CCCNC(=N)N)C(=O)NCC(=O)O)C(C)C [GLP1_C]
- plasma half-life ([1]; in animal): only a few minutes in animal

Molecule: GLP1_8A37C-HSA (from UniProt P02768 25-609)
- EC50 of cAMP production by GLP-1R-overexpressing HEK-293 cells [2]: 0.185 µM

Molecule: GLP1_8G37C-HSA (from UniProt P02768 25-609)
- EC50 of cAMP production by GLP-1R-overexpressing HEK-293 cells [2]: 1.34 µM

Molecule: Glucagon-like peptide-1 [GLP-1]
- half-life in the body ([1]; reported, reference not given): 2 to 3 min
